Reference: patent publication US20220306729A1 (published 2022)

Key:
[1] = target: ZIKV envelope domain III (ZEDIII), polyhistidine-AviTag, made in HEK-293-6E cells; assay: ELISA
[2] = target: Human FcRn; assay: SPR

B1: Z037 (antibody, V domains shown)
VH: QVQLQESGPGLVKPSETLSLTCSVSGYFISSGHYWGWIRQSPGKGLEWIASIYQSGSKFQTGNTYYNPSLESRVTISMDTSKNQFSLKLSSVTAADTAVYFCARDARSRSWDRTGFFGPWGQGILVTVSS
VL: EIVLTQSPGTLSLSPGERATLSCRASQSLSSSFLAWYQQKPGQSPRLLIYGTSSRDTGIPDRFSGSGSGTDFTLTISRLEPEDSAVYYCQQYGSSWGTFGQGTKLEIK
EC50 [1]: > 0.4 µg/mL

B2: Z010 (MEX105_88) (antibody, V domains shown)
VH: EVQLLESGGGLVQPGGSLRLSCAASGFTFSNYAMAWVRQAPGKGLEWVSLIYSGDDSTYYADFVKGRFTISRHNSKNTLSLQMNSLRAEDTAIYYCVKDRGTGWSSIVHWGQGTLVTVSS
VL: DIQMTQSPSTLSASVGDRVTITCRASQTISNWLAWYQQKPGKAPKLLIYQASSLESGVPSRFSGSGSGTEFTLTISSLQPDDFATYYCQQYSTYWTFGQGTKVEIK
EC50 [1]: > 0.4 µg/mL

B3: Z012 (antibody, V domains shown)
VH: QVQLVQSGAEVKKSGASVKVSCKASGYSFTTNYIHWVRQAPGQGPEWMGIINPRGGSTTYAQKFQGRVLMTSDTSTSTVYMELSSLRSEDRAVYYCARGKNHQTTVAVLSWYYGMDVWGQGTTVTVSS
VL: DIQMTQSPSSVSASVGDRVTITCRASQGISSWLAWYQQKPGKAPKLLISAASSLQSGVPSRFSGSGSGTDFTLTISNLQPEDFATYFCQQANSFPYTFGQGTKLEIK
EC50 [1]: 0.2 µg/mL

B4: GRLR/LS (antibody)
heavy: EVQLLESGGGLVQPGGSLRLTCATSGFTFRDYAMSWVRQAPGKGLEWVSSYSGIDDSTYYADSVKGRFTISRDNSKSTLSLHMNSLRAEDSALYFCAKDRGPRGVGELFDSWGQGTLVTVSSASTKGPSVFPLAPSSKSTSGGTAALGCLVKDYFPEPVTVSWNSGALTSGVHTFPAVLQSSGLYSLSSVVTVPSSSLGTQTYICNVNHKPSNTKVDKRVEPKSCDKTHTCPPCPAPELLRGPSVFLFPPKPKDTLMISRTPEVTCVVVDVSHEDPEVKFNWYVDGVEVHNAKTKPREEQYNSTYRVVSVLTVLHQDWLNGKEYKCKVSNKARPAPIEKTISKAKGQPREPQVYTLPPSREEMTKNQVSLTCLVKGFYPSDIAVEWESNGQPENNYKTTPPVLDSDGSFFLYSKLTVDKSRWQQGNVFSCSVLHEALHSHYTQKSLSLSPG
light: DIQMTQSPSTLSASVGDRVTITCRASQSISKWLAWYQQKPGKAPKLLIYTTSTLKSGVPSRFSGSGSGTEFTLTISSLQPDDFATYYCQHFYSVPWTFGQGTKVEIKRTVAAPSVFIFPPSDEQLKSGTASVVCLLNNFYPREAKVQWKVDNALQSGNSQESVTEQDSKDSTYSLSSTLTLSKADYEKHKVYACEVTHQGLSSPVTKSFNRGEC
Kd [2]: 5.2 nM
